The source of these data is paper PMC6274722.

The target in this experiment is amyloid β 1-42 peptide (Aβ1-42) (UniProt P05067).

deuterohemin = iron-porphyrin joined to the peptide N-terminus

Molecule deuterohemin-AHTVEK-NH2 (also: His2 imidazole is the fifth ligand of the deuterohemin iron) [Deuterohemin-AlaHisThrValGluLys (DhHP-6)] came in with a particle size (DLS, five days) and morphology (TEM, three days) of Aβ1-42 incubated with DhHP-6 at 10 μM:10 μM, 37 °C of 396 nm.
